Read-outs that look alike come from different tables or passages of the source.

What all share (test): cell-based or functional assay
The target of assay [1] is T1, Cathepsin B from bovine spleen (bovine, UniProt P07688 80-332).
The target in assay [2] is T1, Cathepsin B from bovine spleen. This is another data set of the same source.
The target is the same in assay [3]. The source holds these as a separate data set.
The target is the same in assay [4]. The source holds these as a separate data set.
The target is the same in assay [5]. The source holds these as a separate data set.
For assay [6] the target is unchanged. The source holds these as a separate data set.

With Ac-KISI-OH (also: MGO-modified, site not given here) [MGO-modified Ac-KISI-OH], the “Cathepsin B inhibition test, 2 mM peptide” value (shortened to “Cathepsin B inhibition test”) in assay [1] was 92.8.
On to Ac-HSSK-OH [Ac-HSSK-OH], for which the “Cathepsin B inhibition test” value in assay [2] is 165.
Ac-QNKHNN-OH [Ac-QNKHNN-OH]: in assay [3], the “Cathepsin B inhibition test” value turned out to be 168.
Consider Ac-Leu-Leu-Lys-NH2 (also: MGO-modified, site not given here) [MGO-modified Ac-LLK-NH2], for which, in assay [4], the “Cathepsin B inhibition test” value came to 137.
On to Ac-NQKNNN-OH [Ac-NQKNNN-OH], for which, in assay [5], the “Cathepsin B inhibition test” value is 147.
Regarding Ac-HSSKLH-OH [Ac-HSSKLH-OH], in assay [2], the “Cathepsin B inhibition test” value was 122.
As to Ac-KISIHL-OH (also: MGO-modified, site not given here) [MGO-modified Ac-KISIHL-OH], the “Cathepsin B inhibition test” value in assay [1] was found to be 73.2.
On to Ac-QNKHNN-OH (also: MGO-modified, site not given here) [MGO-modified Ac-QNKHNN-OH], for which, in assay [3], the “Cathepsin B inhibition test” value is 51.3.
As to Ac-NQKN-OH [Ac-NQKN-OH], in assay [5], the “Cathepsin B inhibition test” value was 282.
For Ac-Leu-Leu-Lys-OH (also: MGO-modified, site not given here) [MGO-modified Ac-LLK-OH], in assay [4], the “Cathepsin B inhibition test” value was 148.
Ac-SKLH-OH (also: MGO-modified, site not given here) [MGO-modified Ac-SKLH-OH]: the “Cathepsin B inhibition test” value in assay [2] came out at 67.6.
Take Ac-NQKNNNQN-OH (also: MGO-modified, site not given here) [MGO-modified Ac-NQKNNNQN-OH]: the “Cathepsin B inhibition test” value in assay [5] is 171.
As to Ac-QNKH-OH (also: MGO-modified, site not given here) [MGO-modified Ac-QNKH-OH], in assay [3], the “Cathepsin B inhibition test” value is 97.8.
With Ac-Leu-Ile-Arg-NH2 (also: MGO-modified, site not given here) [MGO-modified Ac-LIR-NH2], the “Cathepsin B inhibition test” value in assay [4] turned out to be 72.6.
On the same count and under the same terms, the figure for Ac-Leu-Ile-Arg-NH2 [Ac-LIR-NH2] is 65.4.
With Ac-HSSKLH-OH (also: MGO-modified, site not given here) [MGO-modified Ac-HSSKLH-OH], the “Cathepsin B inhibition test” value in assay [2] amounted to 102.
Regarding Ac-Lys-His-OH [Ac-KH-OH], the “Cathepsin B inhibition test” value in assay [3] came out at 230.
Ac-Leu-Leu-Lys-NH2 [Ac-LLK-NH2]: the “Cathepsin B inhibition test” value in assay [4] stood at 159.
As for Ac-SSKS-OH [Ac-SSKS-OH], the “Cathepsin B inhibition test” value in assay [2] is 119.
Regarding Ac-Lys-Asn-OH [Ac-KN-OH], in assay [5], the “Cathepsin B inhibition test” value is 150.
On the same count and under the same terms, as for Ac-NQKNNNQNDN-OH [Ac-NQKNNNQNDN-OH], the figure is 254.
Ac-PFKI-OH [Ac-PFKI-OH]: the “Cathepsin B inhibition test” value in assay [1] was found to be 152.
For Ac-KHNN-OH [Ac-KHNN-OH], the “Cathepsin B inhibition test” value in assay [3] was 129.
Turning to Ac-Leu-Ile-Arg-OH [Ac-LIR-OH], in assay [4], the “Cathepsin B inhibition test” value stood at 128.
As to Ac-SSKSNNRHNN-OH (also: MGO-modified, site not given here) [MGO-modified Ac-SSKSNNRHNN-OH], the “Cathepsin B inhibition test” value in assay [6] stood at 104.
Regarding Ac-NQKN-OH (also: MGO-modified, site not given here) [MGO-modified Ac-NQKN-OH], the “Cathepsin B inhibition test” value in assay [5] was 102.
Still for that read-out and setting: the figure for Ac-NQKNNNQNDN-OH (also: MGO-modified, site not given here) [MGO-modified Ac-NQKNNNQNDN-OH] is 123.
In the case of Ac-KISIHL-OH [Ac-KISIHL-OH], in assay [1], the “Cathepsin B inhibition test” value is 149.
In the case of Ac-SSKS-OH (also: MGO-modified, site not given here) [MGO-modified Ac-SSKS-OH], in assay [2], the “Cathepsin B inhibition test” value is 107.
On to Ac-SSKSNNRHNNND-OH (also: MGO-modified, site not given here) [MGO-modified Ac-SSKSNNRHNNND-OH], for which, in assay [6], the “Cathepsin B inhibition test” value was 110.
As for Ac-SSKSNNRH-OH [Ac-SSKSNNRH-OH], the “Cathepsin B inhibition test” value in assay [6] was determined as 125.
In the case of Ac-SSKSNNRHNN-OH [Ac-SSKSNNRHNN-OH], the “Cathepsin B inhibition test” value in assay [6] amounted to 131.
In the case of Ac-NQKNNN-OH (also: MGO-modified, site not given here) [MGO-modified Ac-NQKNNN-OH], in assay [5], the “Cathepsin B inhibition test” value is 87.5.
On to Ac-SSKSNN-OH [Ac-SSKSNN-OH], for which the “Cathepsin B inhibition test” value in assay [6] stood at 129.
For the molecule Ac-PFKI-OH (also: MGO-modified, site not given here) [MGO-modified Ac-PFKI-OH], in assay [1], the “Cathepsin B inhibition test” value amounted to 91.5.
Regarding Ac-NQKNNNQN-OH [Ac-NQKNNNQN-OH], the “Cathepsin B inhibition test” value in assay [5] is 290.
As to Ac-Leu-Leu-Lys-OH [Ac-LLK-OH], the “Cathepsin B inhibition test” value in assay [4] was determined as 142.
Turning to Ac-SKLH-OH [Ac-SKLH-OH], the “Cathepsin B inhibition test” value in assay [2] turned out to be 146.
As for Ac-PFKISIHL-OH [Ac-PFKISIHL-OH], the “Cathepsin B inhibition test” value in assay [1] was 144.
For the molecule Ac-Leu-Ile-Arg-OH (also: MGO-modified, site not given here) [MGO-modified Ac-LIR-OH], the “Cathepsin B inhibition test” value in assay [4] was determined as 0.07.
Turning to Ac-SSKSNN-OH (also: MGO-modified, site not given here) [MGO-modified Ac-SSKSNN-OH], in assay [6], the “Cathepsin B inhibition test” value stood at 107.
With Ac-PFKISIHL-OH (also: MGO-modified, site not given here) [MGO-modified Ac-PFKISIHL-OH], in assay [1], the “Cathepsin B inhibition test” value was 28.1.
Still for that read-out and setting: as for Ac-KISI-OH [Ac-KISI-OH], the figure is 133.
Turning to Ac-SSKSNNRHNNND-OH [Ac-SSKSNNRHNNND-OH], in assay [6], the “Cathepsin B inhibition test” value was 164.
Still for that read-out and setting: as for Ac-SSKSNNRH-OH (also: MGO-modified, site not given here) [MGO-modified Ac-SSKSNNRH-OH], the figure is 102.

For the origin of these results see patent US20150337019A1 (MANUKAMED HOLDINGS LIMITED PARTNERSHIP, published 2015).
